# Laboratory results: the supplement of paper PMC9112550, “Optimization of the antimicrobial peptide Bac7 by deep mutational scanning” (BMC Biology, 2022)
# System: Escherichia coli TOP10
# Experiment: shrunken log2 fold change of peptide-encoding DNA abundance (4.5 h post-induction vs induction); higher = less antimicrobial activity (less host growth inhibition)
# Conditions: time post-induction: 4.5 h; library: site-saturation at positions 5, 18, 19, 20
# 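Further: peptides expressed intracellularly from a pBAD plasmid library in pooled LB shake-flask culture, induced with 0.3% L-arabinose, DNA abundance read by NGS, three biological replicates, DESeq2 with apeglm shrinkage.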
row,Sequence,shrunken log2 fold change
1,RRIRIRPPRLPRPRPRPINHPRP,-0.683
2,RRIRYRPPRLPRPRPRPRGWPRP,0.575
3,RRIRKRPPRLPRPRPRPFTYPRP,-0.0389
4,RRIRIRPPRLPRPRPRPVFWPRP,0.201
5,RRIRERPPRLPRPRPRPHSHPRP,-0.269
6,RRIRQRPPRLPRPRPRPMYPPRP,-0.329
7,RRIRRRPPRLPRPRPRPVPPPRP,0.77
8,RRIRLRPPRLPRPRPRPMLKPRP,-0.295
9,RRIRTRPPRLPRPRPRPDMWPRP,-0.126
10,RRIRSRPPRLPRPRPRPWSQPRP,-0.00693
11,RRIRMRPPRLPRPRPRPHCCPRP,-0.0266
12,RRIRERPPRLPRPRPRPHGPPRP,0.139
13,RRIRPRPPRLPRPRPRPSKQPRP,-0.116
14,RRIRSRPPRLPRPRPRPYSYPRP,-0.393
15,RRIRKRPPRLPRPRPRPLWLPRP,0.377
16,RRIRERPPRLPRPRPRPQVFPRP,-0.0552
17,RRIRGRPPRLPRPRPRPAWFPRP,0.652
18,RRIRNRPPRLPRPRPRPPHTPRP,-0.0383
19,RRIRKRPPRLPRPRPRPEIIPRP,-0.0419
20,RRIRKRPPRLPRPRPRPPSSPRP,0.263
21,RRIRQRPPRLPRPRPRPSFCPRP,0.462
22,RRIRERPPRLPRPRPRPSYTPRP,-0.181

row,Sequence,shrunken log2 fold change
1,RRIRFRPPRLPRPRPRPIVCPRP,-0.406
2,RRIRYRPPRLPRPRPRPWMHPRP,-0.519
3,RRIRHRPPRLPRPRPRPNRIPRP,-0.46
4,RRIRDRPPRLPRPRPRPTDGPRP,-0.107
5,RRIRVRPPRLPRPRPRPHQWPRP,-0.239
6,RRIRMRPPRLPRPRPRPYFLPRP,-0.542
7,RRIRSRPPRLPRPRPRPVSYPRP,-0.0884
8,RRIRPRPPRLPRPRPRPDVNPRP,-0.233
9,RRIRWRPPRLPRPRPRPICHPRP,-0.0597
10,RRIRVRPPRLPRPRPRPPVSPRP,0.847
11,RRIRCRPPRLPRPRPRPEVDPRP,0.0462
12,RRIRVRPPRLPRPRPRPKMGPRP,0.0797
13,RRIRSRPPRLPRPRPRPTSCPRP,-0.0946
14,RRIRRRPPRLPRPRPRPTFFPRP,0.722
15,RRIRKRPPRLPRPRPRPAARPRP,0.742
16,RRIRDRPPRLPRPRPRPHFAPRP,-0.103
17,RRIRQRPPRLPRPRPRPDCRPRP,0.0305
18,RRIRYRPPRLPRPRPRPQSTPRP,-1.2
19,RRIRDRPPRLPRPRPRPKCLPRP,0.313
20,RRIRLRPPRLPRPRPRPQTIPRP,-0.234
21,RRIRMRPPRLPRPRPRPQVFPRP,0.281
22,RRIRFRPPRLPRPRPRPWVAPRP,-0.139

row,Sequence,shrunken log2 fold change
1,RRIRFRPPRLPRPRPRPQQEPRP,-0.0424
2,RRIRARPPRLPRPRPRPIFEPRP,0.125
3,RRIRRRPPRLPRPRPRPVSEPRP,0.34
4,RRIRIRPPRLPRPRPRPNWDPRP,-0.0401
5,RRIRDRPPRLPRPRPRPHTRPRP,0.013
6,RRIRYRPPRLPRPRPRPYCRPRP,-0.377
7,RRIRHRPPRLPRPRPRPVEYPRP,-0.0122
8,RRIRFRPPRLPRPRPRPCGFPRP,0.0163
9,RRIRWRPPRLPRPRPRPEKQPRP,0.0441
10,RRIRLRPPRLPRPRPRPCHHPRP,-0.322
11,RRIRQRPPRLPRPRPRPRRRPRP,0.255
12,RRIRFRPPRLPRPRPRPRACPRP,0.165
13,RRIRHRPPRLPRPRPRPKRAPRP,0.0906
14,RRIRKRPPRLPRPRPRPTHCPRP,0.251
15,RRIRIRPPRLPRPRPRPSKDPRP,-1.02
16,RRIRMRPPRLPRPRPRPMADPRP,1.11
17,RRIRQRPPRLPRPRPRPCRSPRP,0.00709
18,RRIRTRPPRLPRPRPRPQTMPRP,-0.151
19,RRIRSRPPRLPRPRPRPWMGPRP,-0.238
20,RRIRSRPPRLPRPRPRPIHGPRP,-0.159
21,RRIRSRPPRLPRPRPRPEYVPRP,0.0646
22,RRIRYRPPRLPRPRPRPPRIPRP,-0.0175

row,Sequence,shrunken log2 fold change
1,RRIRWRPPRLPRPRPRPNWQPRP,-0.0101
2,RRIRRRPPRLPRPRPRPAPTPRP,0.793
3,RRIRIRPPRLPRPRPRPTNTPRP,-0.45
4,RRIRPRPPRLPRPRPRPHGTPRP,-0.0314
5,RRIRNRPPRLPRPRPRPCDHPRP,-0.0208
6,RRIRTRPPRLPRPRPRPKHGPRP,-0.0288
7,RRIRKRPPRLPRPRPRPYYRPRP,-0.827
8,RRIRSRPPRLPRPRPRPYQFPRP,0.0245
9,RRIRRRPPRLPRPRPRPTKEPRP,-0.0782
10,RRIRWRPPRLPRPRPRPQYPPRP,-0.139
11,RRIRRRPPRLPRPRPRPLPEPRP,0.731
12,RRIRKRPPRLPRPRPRPDWMPRP,0.00417
13,RRIRRRPPRLPRPRPRPIGRPRP,0.00106
14,RRIRSRPPRLPRPRPRPPLVPRP,-0.0483
15,RRIRDRPPRLPRPRPRPSHIPRP,-1.15
16,RRIRMRPPRLPRPRPRPILFPRP,-0.385
17,RRIRIRPPRLPRPRPRPCPWPRP,-0.161
18,RRIRARPPRLPRPRPRPKNVPRP,0.166
19,RRIRQRPPRLPRPRPRPTPEPRP,0.0617
20,RRIRSRPPRLPRPRPRPTYYPRP,-0.42
21,RRIRMRPPRLPRPRPRPYQTPRP,-0.0231
22,RRIRPRPPRLPRPRPRPMREPRP,1.07

row,Sequence,shrunken log2 fold change
1,RRIRTRPPRLPRPRPRPKFYPRP,-0.272
2,RRIRSRPPRLPRPRPRPWNYPRP,0.0149
3,RRIRARPPRLPRPRPRPPWYPRP,0.139
4,RRIRIRPPRLPRPRPRPLSHPRP,-0.0521
5,RRIRYRPPRLPRPRPRPDKCPRP,-0.107
6,RRIRWRPPRLPRPRPRPTPMPRP,0.24
7,RRIRFRPPRLPRPRPRPAHWPRP,0.539
8,RRIRNRPPRLPRPRPRPYKNPRP,-0.941
9,RRIRDRPPRLPRPRPRPAHDPRP,0.414
10,RRIRPRPPRLPRPRPRPPWVPRP,0.356
11,RRIRWRPPRLPRPRPRPECLPRP,0.444
12,RRIRSRPPRLPRPRPRPIHTPRP,-0.112
13,RRIRYRPPRLPRPRPRPHTNPRP,-0.661
14,RRIRERPPRLPRPRPRPLWGPRP,0.0859
15,RRIRSRPPRLPRPRPRPLWQPRP,0.311
16,RRIRDRPPRLPRPRPRPKEGPRP,0.32
17,RRIRERPPRLPRPRPRPYHYPRP,-0.102
18,RRIRARPPRLPRPRPRPWLLPRP,0.156
19,RRIRYRPPRLPRPRPRPVMNPRP,-0.115
20,RRIRKRPPRLPRPRPRPCCQPRP,-0.102
21,RRIRERPPRLPRPRPRPTWDPRP,-0.327
